Experiments:
[1] = biological target: T1, human complement factor Bb (human, UniProt P00751 260-764); test: cell-based or functional assay
[2] = biological target: T2, human complement C1s enzyme (activated C1s) (human, UniProt P09871 16-437; P09871 438-688); test: cell-based or functional assay
T2 sequence 1: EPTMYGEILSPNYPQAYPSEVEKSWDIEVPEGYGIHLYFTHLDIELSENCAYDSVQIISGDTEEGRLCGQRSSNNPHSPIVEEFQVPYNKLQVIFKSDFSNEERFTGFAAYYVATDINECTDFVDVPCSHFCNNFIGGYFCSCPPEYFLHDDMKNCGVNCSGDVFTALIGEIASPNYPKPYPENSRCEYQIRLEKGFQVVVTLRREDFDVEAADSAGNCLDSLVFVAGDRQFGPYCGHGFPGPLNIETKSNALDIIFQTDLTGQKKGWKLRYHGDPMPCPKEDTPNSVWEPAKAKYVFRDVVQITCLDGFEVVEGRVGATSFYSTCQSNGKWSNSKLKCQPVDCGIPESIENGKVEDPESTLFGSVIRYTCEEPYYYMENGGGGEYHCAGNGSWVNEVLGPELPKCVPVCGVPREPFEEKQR
T2 sequence 2: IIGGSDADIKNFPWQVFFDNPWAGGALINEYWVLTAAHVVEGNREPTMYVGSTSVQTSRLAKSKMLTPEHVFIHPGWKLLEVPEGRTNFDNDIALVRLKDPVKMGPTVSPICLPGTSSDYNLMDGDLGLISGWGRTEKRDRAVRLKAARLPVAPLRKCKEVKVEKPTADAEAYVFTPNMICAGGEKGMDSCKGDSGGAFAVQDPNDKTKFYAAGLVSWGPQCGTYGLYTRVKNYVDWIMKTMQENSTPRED

[3] = biological target: T1, human complement factor Bb; test: BLI (Octet), biotinylated target on streptavidin sensor
Text: (§1) Bio-layer interferometry (BLI) was used to assess the recombinant proteins' target engagement to and binding affinity for complement C1s enzyme (active C1s or “C1s” herein) and factor Bb (Bb) (Complement Technology, Tyler, TX, USA). C1s and Bb were biotinylated with EZ-Link™ Sulfo-NHS-LC-LC-Biotin (Thermo Fisher, Waltham, MA, USA) according to manufacturer instructions. Biotinylated C1s or Bb was loaded on Octet® Streptavidin (SA) Biosensors (Sartorius, Göttingen, Germany), followed by a concentration range of purified proteins. To assess dual target engagement, biotinylated active C1s or Bb was loaded onto sensors, followed by purified proteins (“first association phase”), followed by the non-captured complement target (Bb or active C1s, non-biotinylated; “second association phase”). The assays were performed at 30° C. using PBS with 0.1% Tween 20 as a diluent (FIG. 3).

[4] = biological target: T2, human complement C1s enzyme (activated …); test: as above
Text: as §1

T1 sequence (P00751 260-764): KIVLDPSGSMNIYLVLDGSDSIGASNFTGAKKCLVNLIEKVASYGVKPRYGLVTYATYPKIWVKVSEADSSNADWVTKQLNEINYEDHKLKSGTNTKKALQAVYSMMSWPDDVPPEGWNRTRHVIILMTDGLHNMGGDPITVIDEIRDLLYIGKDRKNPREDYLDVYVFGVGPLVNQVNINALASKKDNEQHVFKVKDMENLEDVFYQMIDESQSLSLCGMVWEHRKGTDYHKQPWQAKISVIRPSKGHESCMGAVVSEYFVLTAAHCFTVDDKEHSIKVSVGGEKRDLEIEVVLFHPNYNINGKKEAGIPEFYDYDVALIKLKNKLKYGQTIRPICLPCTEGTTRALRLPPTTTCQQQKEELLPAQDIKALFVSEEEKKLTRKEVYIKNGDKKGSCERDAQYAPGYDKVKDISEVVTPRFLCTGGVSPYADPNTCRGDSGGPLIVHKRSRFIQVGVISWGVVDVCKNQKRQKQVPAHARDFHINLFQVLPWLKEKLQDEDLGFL

B1: construct #8: αBb scFab-(G4S)3-αC1s scFab (bispecific antibody)
chain: DIQMTQSPSTLSASVGDRVTITCKASQDVGTAVAWYQQKPGKAPKLLIYWASTRHTGVPDRFSGSGSGTDFTLTISSLQAEDFAVYFCHQHSSNPLTFGQGTKLEIKRTVAAPSVFIFPPSDEQLKSGTASVVCLLNNFYPREAKVQWKVDNALQSGNSQESVTEQDSKDSTYSLSSTLTLSKADYEKHKVYACEVTHQGLSSPVTKSFNRGECGGGGSGGGGSGGGGSGGGGSGGGGSGGGGSGGGGSEVQLVESGGGLVKPGGSLRLSCAASGFTFSNYAMSWVRQAPGKRLEWVATISNRGSYTYYPDSVKGRFTISRDNAKNSLYLQMNSLRAEDTALYYCARERPMDYWGQGTLVTVSSASTKGPSVFPLAPCSRSTSESTAALGCLVKDYFPEPVTVSWNSGALTSGVHTFPAVLQSSGLYSLSSVVTVPSSSLGTKTYTCNVDHKPSNTKVDKRVGGGGGSGGGGSGGGGSDIVLTQSPDSLAVSLGERATISCKASQSVDYDGDSYMNWYQQKPGQPPKILIYDASNLESGIPARFSGSGSGTDFTLTISSLEPEDFAIYYCQQSNEDPWTFGGGTKVEIKRTVAAPSVFIFPPSDEQLKSGTASVVCLLNNFYPREAKVQWKVDNALQSGNSQESVTEQDSKDSTYSLSSTLTLSKADYEKHKVYACEVTHQGLSSPVTKSFNRGECGGGGSGGGGSGGGGSGGGGSGGGGSGGGGSGGGGSQVQLVQSGAEVKKPGASVKLSCTASGFNIKDDYIHWVKQAPGQGLEWIGRIDPADGHTKYAPKFQVKVTITADTSTSTAYLELSSLRSEDTAVYYCARYGYGREVFDYWGQGTTVTVSSASTKGPSVFPLAPCSRSTSESTAALGCLVKDYFPEPVTVSWNSGALTSGVHTFPAVLQSSGLYSLSSVVTVPSSSLGTKTYTCNVDHKPSNTKVDKRV
notes: Signal peptide marked by boldface only
[1]
  IC50 AP (Wieslab): 420 nM
[2]
  IC50 CP (Wieslab): 87.7 nM
[3]
  Kd: 1.8 nM
  koff: 0.00021 s⁻¹
  kon: 120000 M⁻¹ s⁻¹
[4]
  Kd: 2.1 nM
  koff: 0.00063 s⁻¹
  kon: 300000 M⁻¹ s⁻¹

B2: construct #13: αC1s scFab-(G4S)2-αBb scFv (bispecific antibody)
chain: DIVLTQSPDSLAVSLGERATISCKASQSVDYDGDSYMNWYQQKPGQPPKILIYDASNLESGIPARFSGSGSGTDFTLTISSLEPEDFAIYYCQQSNEDPWTFGGGTKVEIKRTVAAPSVFIFPPSDEQLKSGTASVVCLLNNFYPREAKVQWKVDNALQSGNSQESVTEQDSKDSTYSLSSTLTLSKADYEKHKVYACEVTHQGLSSPVTKSFNRGECGGGGSGGGGSGGGGSGGGGSGGGGSGGGGSGGGGSQVQLVQSGAEVKKPGASVKLSCTASGFNIKDDYIHWVKQAPGQGLEWIGRIDPADGHTKYAPKFQVKVTITADTSTSTAYLELSSLRSEDTAVYYCARYGYGREVFDYWGQGTTVTVSSASTKGPSVFPLAPCSRSTSESTAALGCLVKDYFPEPVTVSWNSGALTSGVHTFPAVLQSSGLYSLSSVVTVPSSSLGTKTYTCNVDHKPSNTKVDKRVGGGGSGGGGSEVQLVESGGGLVKPGGSLRLSCAASGFTFSNYAMSWVRQAPGKRLEWVATISNRGSYTYYPDSVKGRFTISRDNAKNSLYLQMNSLRAEDTALYYCARERPMDYWGQGTLVTVSSGGGGSGGGGSGGGGSDIQMTQSPSTLSASVGDRVTITCKASQDVGTAVAWYQQKPGKAPKLLIYWASTRHTGVPDRFSGSGSGTDFTLTISSLQAEDFAVYFCHQHSSNPLTFGQGTKLEIK
notes: Residues 1-20 were left out as the signal peptide, which is marked by boldface only
[1]
  IC50 AP (Wieslab): 201 nM
[2]
  IC50 CP (Wieslab): 44.4 nM
[3]
  Kd: 3 nM
  koff: 0.00022 s⁻¹
  kon: 70000 M⁻¹ s⁻¹
[4]
  Kd: 1 nM
  koff: 0.00029 s⁻¹
  kon: 300000 M⁻¹ s⁻¹

B3: construct #19: αC1s scFab-(G4S)3-αBb F2A Fab (bispecific antibody)
chain: DIVLTQSPDSLAVSLGERATISCKASQSVDYDGDSYMNWYQQKPGQPPKILIYDASNLESGIPARFSGSGSGTDFTLTISSLEPEDFAIYYCQQSNEDPWTFGGGTKVEIKRTVAAPSVFIFPPSDEQLKSGTASVVCLLNNFYPREAKVQWKVDNALQSGNSQESVTEQDSKDSTYSLSSTLTLSKADYEKHKVYACEVTHQGLSSPVTKSFNRGECGGGGSGGGGSGGGGSGGGGSGGGGSGGGGSGGGGSQVQLVQSGAEVKKPGASVKLSCTASGFNIKDDYIHWVKQAPGQGLEWIGRIDPADGHTKYAPKFQVKVTITADTSTSTAYLELSSLRSEDTAVYYCARYGYGREVFDYWGQGTTVTVSSASTKGPSVFPLAPCSRSTSESTAALGCLVKDYFPEPVTVSWNSGALTSGVHTFPAVLQSSGLYSLSSVVTVPSSSLGTKTYTCNVDHKPSNTKVDKRVGGGGSGGGGSGGGGSEVQLVESGGGLVKPGGSLRLSCAASGFTFSNYAMSWVRQAPGKRLEWVATISNRGSYTYYPDSVKGRFTISRDNAKNSLYLQMNSLRAEDTALYYCARERPMDYWGQGTLVTVSSASTKGPSVFPLAPCSRSTSESTAALGCLVKDYFPEPVTVSWNSGALTSGVHTFPAVLQSSGLYSLSSVVTVPSSSLGTKTYTCNVDHKPSNTKVDKRV
light: DIQMTQSPSTLSASVGDRVTITCKASQDVGTAVAWYQQKPGKAPKLLIYWASTRHTGVPDRFSGSGSGTDFTLTISSLQAEDFAVYFCHQHSSNPLTFGQGTKLEIKRTVAAPSVFIFPPSDEQLKSGTASVVCLLNNFYPREAKVQWKVDNALQSGNSQESVTEQDSKDSTYSLSSTLTLSKADYEKHKVYACEVTHQGLSSPVTKSFNRGEC
[1]
  IC50 AP (Wieslab); curve not saturated, estimated: ~2090 nM
[2]
  IC50 CP (Wieslab): 34 nM

B4: construct #5: αC1s scFv-(G4S)2-αBb scFv (bispecific antibody)
chain: QVQLVQSGAEVKKPGASVKLSCTASGFNIKDDYIHWVKQAPGQGLEWIGRIDPADGHTKYAPKFQVKVTITADTSTSTAYLELSSLRSEDTAVYYCARYGYGREVFDYWGQGTTVTVSSGGGGSGGGGSGGGGSDIVLTQSPDSLAVSLGERATISCKASQSVDYDGDSYMNWYQQKPGQPPKILIYDASNLESGIPARFSGSGSGTDFTLTISSLEPEDFAIYYCQQSNEDPWTFGGGTKVEIKGGGGSGGGGSEVQLVESGGGLVKPGGSLRLSCAASGFTFSNYAMSWVRQAPGKRLEWVATISNRGSYTYYPDSVKGRFTISRDNAKNSLYLQMNSLRAEDTALYYCARERPMDYWGQGTLVTVSSGGGGSGGGGSGGGGSDIQMTQSPSTLSASVGDRVTITCKASQDVGTAVAWYQQKPGKAPKLLIYWASTRHTGVPDRFSGSGSGTDFTLTISSLQAEDFAVYFCHQHSSNPLTFGQGTKLEIK
[1]
  IC50 AP (Wieslab); curve not saturated, estimated: ~2830 nM
[2]
  IC50 CP (Wieslab): 216 nM

B5: construct #6: αBb scFv-(G4S)2-αC1s scFv (bispecific antibody)
chain: EVQLVESGGGLVKPGGSLRLSCAASGFTFSNYAMSWVRQAPGKRLEWVATISNRGSYTYYPDSVKGRFTISRDNAKNSLYLQMNSLRAEDTALYYCARERPMDYWGQGTLVTVSSGGGGSGGGGSGGGGSDIQMTQSPSTLSASVGDRVTITCKASQDVGTAVAWYQQKPGKAPKLLIYWASTRHTGVPDRFSGSGSGTDFTLTISSLQAEDFAVYFCHQHSSNPLTFGQGTKLEIKGGGGSGGGGSQVQLVQSGAEVKKPGASVKLSCTASGFNIKDDYIHWVKQAPGQGLEWIGRIDPADGHTKYAPKFQVKVTITADTSTSTAYLELSSLRSEDTAVYYCARYGYGREVFDYWGQGTTVTVSSGGGGSGGGGSGGGGSDIVLTQSPDSLAVSLGERATISCKASQSVDYDGDSYMNWYQQKPGQPPKILIYDASNLESGIPARFSGSGSGTDFTLTISSLEPEDFAIYYCQQSNEDPWTFGGGTKVEIK
[1]
  IC50 AP (Wieslab); curve not saturated, estimated: ~1260 nM
[2]
  IC50 CP (Wieslab): 118 nM
